From PMC7051176

Biological target: mannose receptor (MR) (human (endogenous in primary monocyte-derived macrophages)) (UniProt P22897)

HIV-1 89.6 Env (from UniProt Q73372) (natural protein)
infection of primary human MDM by wild-type HIV-1 89.6 (intracellular Gag stain) with increasing concentrations of soluble mannan, normalized to 0 mg/mL mannan: 16 fold
